Assay results taken from patent CN114634565A.

Experiments:
[1] = molecular target: 裂谷热病毒Gn蛋白 (GenBank: DQ380208.1) (裂谷热病毒 (Rift Valley fever virus))
[2] = molecular target: 裂谷热病毒Gn蛋白 (GenBank: DQ380208.1) (裂谷热病毒 (Rift Valley fever virus)); remark: listed apart in the source
[3] = molecular target: 裂谷热病毒Gn蛋白 (GenBank: DQ380208.1) (裂谷热病毒 (Rift Valley fever virus)); remark: listed apart in the source

B1: 抗裂谷热病毒的单克隆抗体E44 (antibody, V domains shown)
VH: QVQLQQWGEGLVNPSEALSLTCAVYGDSISDDYHWSWIRQPPGKGLEWIGYIFGSSAGTNYNPSLKNRVTISKDTSKNQFSLELTSVTAADTAVYYCARDVTTDRLDVWGPGVPVTVSS
VL: NFMLTQPPSVSADQGQRVTISCSGSSFNVRRYYVSWYQQVPGAAPKLLISDVNKRPSGVSDRFSGSQSGTSATLGISGLRPEDEADYYCSVWDSSLGARVFGGGTRLTVLG
In the case of B1, the EC50 [1] is reported as 2.66 ng/mL, the Kd [2] is reported as 2.58 nM and the OD值 (OD450nm-OD630nm) [3] is reported as 2.35.
